# From patent publication US20150147274A1 (CANCER RESEARCH TECHNOLOGY, published 2015)
# Changes are numbered by the printed parent chain.
# B1: monomeric 7A2 scFv (8xHis-tagged, expressed in P. pastoris) (scFv)
# scFv: EAEAQMQLVQSGAEVKKPGAPVKVSCKVSGYTFTDYYMHWVQQAPGKGLEWMGLVDPEDGETIYAEKFQGRVTITADTSTDTAYMELSSLRSEDTAVYYCATDATTPYYGMDVWGQGTLVTVSSLEGGGGSGGGGSGGGASDIQMTQSPSSLSASVGDRVTITCQASQDISNYLNWYQQKPGRAPKVLIYDASNLETGVPSRFSGSGSGTEFTLTISNLRPDDFATYYCQQGDSFPLTFGGGTKVEIKRPRHHHHHHHH
# notes: Monomer isolated by size exclusion chromatography
# B2: 7A2 scFv (expressed in E. coli, 6xHis/tri-Flag tags) (scFv)
# scFv: QMQLVQSGAEVKKPGAPVKVSCKVSGYTFTDYYMHWVQQAPGKGLEWMGLVDPEDGETIYAEKFQGRVTITADTSTDTAYMELSSLRSEDTAVYYCATDATTPYYGMDVWGQGTLVTVSSLEGGGGSGGGGSGGGASDIQMTQSPSSLSASVGDRVTITCQASQDISNYLNWYQQKPGRAPKVLIYDASNLETGVPSRFSGSGSGTEFTLTISNLRPDDFATYYCQQGDSFPLTFGGGTKVEIK
# notes: also called 084-G02; antibody 7A2; not shown: 6xHis/tri-FLAG tags of pSANG10-3F
# B3: 110_A01 Fab (His/tri-FLAG tagged, hinged) (Fab, V domains shown)
# VH: QMQLVQSGAEVKKPGAPVKVSCKVSGYTFTDYYMHWVQQAPGKGLEWMGLVDPEDGETIYAEKFQGRVTITADTSTDTAYMELSSLRSEDTAVYYCATDATTPYWFPYLWGQGTLVTVSS
# VL: DIQMTQSPSSLSASVGDRVTITCQASQDISNYLNWYQQKPGRAPKVLIYDASNLETGVPSRFSGSGSGTEFTLTISNLRPDDFATYYCQQGDSFPLTFGGGTKVEIK
# notes: Fab from pBIOCAM7-3F, hinged, hexahistidine and tri-FLAG tags on the heavy chain
# B4: 7A2 Fab (tagless, hinged) (Fab, V domains shown)
# VH: B3 VH with W105Y, F106G, P107M, Y108D, L109V
# VL: DIQMTQSPSSLSASVGDRVTITCQASQDISNYLNWYQQKPGRAPKVLIYDASNLETGVPSRFSGSGSGTEFTLTISNLRPDDFATYYCQQGDSFPLTFGGGTKVEIKR
# notes: Purified on KappaSelect; also called Tagless 7A2
# B5: 107_A07 Fab (tagless, native, i.e. not hinged) (Fab, V domains shown)
# VH: B3 VH with F106G, P107M, Y108M, L109W
# VL: B4 VL
# B6: NK1 fragment of HGF/SF (produced in Pichia pastoris) (ligand)
# chain: EAEAYVEGQRKRRNTIHEFKKSAKTTLIKIDPALKIKTKKVNTADQCADRCTRNKGLPFTCKAFVFDKARKQCLWFPFNSMSSGVKKEFGHEFDLYENKDYIRNCIIGKGRSYKGTVSITKSGIKCQPWSSMIPHEHSFLPSSYRGKDLQENYCRNPRGEEGGPWCFTSNPEVRYEVCDIPQCSEVE
# notes: The first two (EA) or four (EAEA) amino acids may be removed during processing; also called NK1.B1; NK1.B2
# Assays:
# [1] = biological target: human MET (c-Met) on cells (SKOV-3, BxPC3) (human) (UniProt P08581); assay: cell-based or functional assay
# [2] = biological target: MET928 (cMET protein derived from construct 25-928) (human) (UniProt P08581); assay: Biacore SPR, MET928-coated surface, 1:1 kinetic analysis
# [3] = biological target: T1, MET928 (cMET protein derived from construct 25-928) (human, UniProt P08581 25-928); assay: Biacore SPR, MET928-coated surface
# T1 construct: MET ectodomain, residues 1-24 are the leader; produced in Lec 8 cells; background text says the ectodomain is furin-cleaved into alpha (25-307) and beta chains; biotinylated form used in selections; also called MET928 extracellular domain; Met extracellular domain
# Description: Since scFv can multimerise, possibly complicating analysis, we also analysed the biological activity of monomeric 7A2 scFv. 8×His-tagged 7A2 scFv (Table 14) was expressed in P. pastoris induced with Methanol over 3 days. Conditioned media was concentrated using a Sartorius Slice Disposable (10 kD nominal molecular weight cut-off) and the scFv purified on a HisTrap column (GE Life Sciences). Monomeric 7A2 scFv (FIG. 11) was isolated by size exclusion using a Superdex 200 16/60 prep grade column (GE Life Sciences).
# [4] = biological target: T2, human MET (c-Met) on cells (SKOV-3, BxPC3) (human, UniProt P08581 25-1390); assay: cell-based or functional assay
# [5] = biological target: T1, MET928 (cMET protein derived from …); assay: Biacore SPR, MET-928 on chip, scFv format
# Protocol: (§1) The binding characteristics of 7A2 and its derivatives were measured using a GE Healthcare Biacore biosensor.
# [6] = biological target: T1, MET928 (cMET protein derived from …); assay: Biacore SPR, MET-928 on chip, Fab format
# Protocol: as §1
# [7] = biological target: T2, human MET (c-Met) on cells (SKOV-3, …); assay: cell-based or functional assay; remark: listed apart in the source
# [8] = biological target: T1, MET928 (cMET protein derived from …); assay: Biacore SPR
# [9] = biological target: T3, MET567 (MET extracellular domain aa 25-567) (human, UniProt P08581 25-567); assay: analytical size exclusion chromatography (Superdex 200 10/300) [Cont.]
# T3 construct: beta-propeller + cystine-rich domain
# Protocol: Epitope location was analysed by analytical size exclusion chromatography. […] The mixtures were then centrifuged to remove any debris and analysed on a Superdex 200 10/300 size exclusion column (GE Life Sciences).
# [10] = biological target: T1, MET928 (cMET protein derived from …); assay: Biacore SPR, MET928-coated surface, 1:1 kinetic analysis
# Description: In FIG. 15, “hinged” His-tagged, IMAC-purified Fabs were used.
# [11] = biological target: T4, MET928.6H (hexahistine tagged MET928) (human, UniProt P08581 25-928); assay: plate binding assay: 100 nM MET928.6H added to NK1-coated microplate, bound MET detected with anti-5xHis and DELFIA Eu-N1 anti-mouse IgG (time-resolved fluorescence) [right panel]
# T4 construct: also called MET ectodomain; not shown: hexahistidine tag
# Protocol: FAb at 5-500 nM (FIG. 8) was mixed with 100 nM MET928.6H (hexahistine tagged MET928) and the mixture incubated at room temperature for one hour, prior to addition of the MET928.6H/FAb mixture to microplates coated with HGF/SF or the fragment NK1 and a further one-hour incubation. Bound MET928.6H was then detected with anti-5xHis (Qiagen) followed by DELFIA® Eu-N1 rabbit anti-mouse-IgG, exposure to DELFIA® enhancement solution and quantitation by time-resolved fluorescence on a Fusion instrument (Perkin Elmer).
# [12] = biological target: T1, MET928 (cMET protein derived from …); assay: SPR (Biacore), CM5 chip coated with MET928
# T1 sequence (P08581 25-928): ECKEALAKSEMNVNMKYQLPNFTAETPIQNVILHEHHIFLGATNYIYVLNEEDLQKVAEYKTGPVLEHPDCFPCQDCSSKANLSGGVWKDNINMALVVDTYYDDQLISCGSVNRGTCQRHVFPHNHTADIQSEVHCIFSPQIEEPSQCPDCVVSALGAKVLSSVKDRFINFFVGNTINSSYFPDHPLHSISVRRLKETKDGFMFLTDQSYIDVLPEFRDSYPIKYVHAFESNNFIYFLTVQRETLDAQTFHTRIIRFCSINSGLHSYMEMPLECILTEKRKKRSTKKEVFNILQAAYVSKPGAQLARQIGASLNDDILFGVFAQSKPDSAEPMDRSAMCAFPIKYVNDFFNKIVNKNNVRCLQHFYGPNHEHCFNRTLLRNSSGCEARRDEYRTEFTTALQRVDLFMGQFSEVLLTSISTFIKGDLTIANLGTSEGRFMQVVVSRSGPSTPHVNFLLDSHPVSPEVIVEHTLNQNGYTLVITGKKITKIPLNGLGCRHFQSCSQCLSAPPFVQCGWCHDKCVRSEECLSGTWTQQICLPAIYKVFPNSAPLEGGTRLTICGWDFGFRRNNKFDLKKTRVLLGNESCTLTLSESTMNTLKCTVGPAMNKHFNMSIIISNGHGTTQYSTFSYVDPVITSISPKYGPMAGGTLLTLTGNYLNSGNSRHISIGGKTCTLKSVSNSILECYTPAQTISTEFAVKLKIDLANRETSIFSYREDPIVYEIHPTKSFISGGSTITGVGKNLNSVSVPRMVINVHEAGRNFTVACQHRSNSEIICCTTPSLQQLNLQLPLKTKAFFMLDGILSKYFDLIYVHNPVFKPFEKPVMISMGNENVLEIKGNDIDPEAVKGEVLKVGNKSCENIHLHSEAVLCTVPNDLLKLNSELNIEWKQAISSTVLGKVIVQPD
# MET928 (cMET protein derived from construct 25-928) (human), sequence (P08581 25-928): as above
# human MET (c-Met) on cells (SKOV-3, BxPC3) (human), sequence (P08581 25-1390): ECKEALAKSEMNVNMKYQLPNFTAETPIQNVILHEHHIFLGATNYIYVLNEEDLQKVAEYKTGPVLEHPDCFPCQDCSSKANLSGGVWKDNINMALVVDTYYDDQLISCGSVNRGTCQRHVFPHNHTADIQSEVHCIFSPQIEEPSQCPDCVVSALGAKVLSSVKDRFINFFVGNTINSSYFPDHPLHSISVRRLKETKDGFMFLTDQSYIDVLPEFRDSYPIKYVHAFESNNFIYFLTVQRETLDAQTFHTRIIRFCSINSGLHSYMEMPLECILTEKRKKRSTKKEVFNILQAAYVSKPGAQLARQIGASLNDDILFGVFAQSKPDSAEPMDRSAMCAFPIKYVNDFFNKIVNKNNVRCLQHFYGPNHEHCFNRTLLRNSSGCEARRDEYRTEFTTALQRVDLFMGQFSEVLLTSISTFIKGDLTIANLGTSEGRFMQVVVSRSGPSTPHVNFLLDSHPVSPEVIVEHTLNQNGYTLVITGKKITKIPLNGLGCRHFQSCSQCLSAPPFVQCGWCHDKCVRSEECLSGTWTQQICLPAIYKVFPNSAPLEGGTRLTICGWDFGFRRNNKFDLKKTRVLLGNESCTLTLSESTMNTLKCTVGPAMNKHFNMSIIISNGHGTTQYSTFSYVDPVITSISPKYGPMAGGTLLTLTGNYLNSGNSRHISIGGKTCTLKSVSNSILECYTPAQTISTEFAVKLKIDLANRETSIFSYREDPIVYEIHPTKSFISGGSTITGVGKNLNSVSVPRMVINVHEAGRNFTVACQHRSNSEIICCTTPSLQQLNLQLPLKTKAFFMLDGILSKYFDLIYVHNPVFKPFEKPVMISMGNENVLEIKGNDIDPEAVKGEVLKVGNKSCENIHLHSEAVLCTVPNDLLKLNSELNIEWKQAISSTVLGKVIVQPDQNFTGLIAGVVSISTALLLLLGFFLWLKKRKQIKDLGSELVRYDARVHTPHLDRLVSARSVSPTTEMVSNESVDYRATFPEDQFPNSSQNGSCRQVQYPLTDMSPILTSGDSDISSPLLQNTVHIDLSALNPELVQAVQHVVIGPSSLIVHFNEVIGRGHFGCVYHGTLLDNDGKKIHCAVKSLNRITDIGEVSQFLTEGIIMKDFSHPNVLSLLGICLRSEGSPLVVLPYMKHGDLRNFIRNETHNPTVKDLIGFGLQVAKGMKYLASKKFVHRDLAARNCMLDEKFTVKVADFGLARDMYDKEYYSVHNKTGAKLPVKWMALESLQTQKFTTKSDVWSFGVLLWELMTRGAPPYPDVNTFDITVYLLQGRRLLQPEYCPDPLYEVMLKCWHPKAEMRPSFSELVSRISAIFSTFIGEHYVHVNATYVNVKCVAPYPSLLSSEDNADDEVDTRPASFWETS
# T2 sequence (P08581 25-1390): as above
# T3 sequence (P08581 25-567): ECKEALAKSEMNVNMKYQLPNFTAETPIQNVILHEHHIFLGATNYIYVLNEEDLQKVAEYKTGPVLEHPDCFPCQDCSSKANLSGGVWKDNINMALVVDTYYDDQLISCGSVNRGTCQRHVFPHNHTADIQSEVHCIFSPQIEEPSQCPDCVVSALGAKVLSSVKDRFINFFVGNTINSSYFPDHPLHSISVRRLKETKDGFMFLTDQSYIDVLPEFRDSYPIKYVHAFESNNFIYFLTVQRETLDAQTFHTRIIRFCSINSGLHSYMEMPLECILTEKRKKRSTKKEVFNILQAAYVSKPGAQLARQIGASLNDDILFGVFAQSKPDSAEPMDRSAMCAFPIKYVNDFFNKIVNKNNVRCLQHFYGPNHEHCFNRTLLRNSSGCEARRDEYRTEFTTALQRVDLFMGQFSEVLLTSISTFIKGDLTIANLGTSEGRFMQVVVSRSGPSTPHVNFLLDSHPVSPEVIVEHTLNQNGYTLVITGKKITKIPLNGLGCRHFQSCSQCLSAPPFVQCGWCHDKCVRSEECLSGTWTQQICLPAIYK
# T4 sequence (P08581 25-928): as the sequence (P08581 25-928) above
molecule,measurement,setting,value
5D5 Fab (His-tagged),"Fab concentration (nanomolar) giving 50% inhibition of HGF/SF-induced SKOV-3 migration, MEAN",[1],101 nM
same,"Fab concentration (nanomolar) giving 50% inhibition of HGF/SF-induced SKOV-3 migration, MEDIAN",[1],91 nM
same,Kd,[2],6.9 nM
same,koff,[2],0.00081 s⁻¹
same,kon,[2],120000 M⁻¹ s⁻¹
5D5 scFv,"IC50 (nM), inhibition of HGF/SF-induced migration of SKOV-3 cells, Assay 1",[1],116 nM
same,"IC50 (nM), inhibition of HGF/SF-induced migration of SKOV-3 cells, Assay 2",[1],83.6 nM
same,"IC50 (nM), inhibition of HGF/SF-induced migration of SKOV-3 cells, Mean",[1],99.6 nM
B1,Kd,[3],3.62 nM
same,koff,[3],0.00212 s⁻¹
same,kon,[3],586000 M⁻¹ s⁻¹
B2,"IC50 (nM), inhibition of HGF/SF-induced migration of SKOV-3 cells, Assay 1",[4],2.1 nM
same,"IC50 (nM), inhibition of HGF/SF-induced migration of SKOV-3 cells, Assay 2",[4],2.5 nM
same,"IC50 (nM), inhibition of HGF/SF-induced migration of SKOV-3 cells, Mean",[4],2.3 nM
same,Kd,[5],12.3 nM
same,koff,[5],0.646 s⁻¹
same,kon,[5],5.25e+07 M⁻¹ s⁻¹
B3,Kd,[6],1.23 nM
same,koff,[6],0.00137 s⁻¹
same,kon,[6],1.12e+06 M⁻¹ s⁻¹
same,"IC50, inhibition of HGF/SF-induced migration of SKOV-3 cells, Assay 1",[7],9.6 nM
same,"IC50, inhibition of HGF/SF-induced migration of SKOV-3 cells, Assay 2",[7],27 nM
same,"IC50, inhibition of HGF/SF-induced migration of SKOV-3 cells, Assay 3",[7],2.6 nM
same,"Mean IC50, inhibition of HGF/SF-induced migration of SKOV-3 cells",[7],13.1 nM
B4,Kd,[8],181 nM
same,koff,[8],0.108 s⁻¹
same,kon,[8],597000 M⁻¹ s⁻¹
same,binding result,[9],no binding (tested: 6 µM Fab with 4 µM MET567)
B5,Kd,[10],4.2 nM
same,koff,[10],0.0075 s⁻¹
same,kon,[10],1.8e+06 M⁻¹ s⁻¹
same,binding result,[9],no binding (tested: 6 µM Fab with 4 µM MET567)
B6,binding result,[11],binds
same,binding result,[12],binds
